In the supplement of paper PMC9170038:

Test system: MS2 coat protein
Test: apparent KD of MS2 coat protein, switch ON state; designed switch direction (-1 OFF switch, 1 ON switch): -1; higher = weaker reporter binding
Conditions: FMN input: 0 or 200 uM; Eterna round: R93 (includes R88 designs)
Outline: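 Illumina sequencing clusters served as templates for on-chip transcription of the designed RNA switches. SNAP-549-labelled MS2 coat protein was then titrated in twofold steps from 0.7 or 1.5 nM to 3 µM, allowing 0.8–1.5 h per step at first and 10–20 min per step later. The buffer held 100 mM Tris-HCl pH 7.5, 80 mM KCl and 4 mM MgCl2, without or with constant ligand. Apparent KD is the median per design of normalised cluster binding-curve fits.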

First: AGCUAGUCAGGAUAUACAAACAUGUCAAAAGACGUGAAGAAACAUGAGGAUCACCCAUGUAGAAGGGACUAGCA [Mat - Exclusion 2 - JL mod - D16]
Second: AGCAUGUGAGGAUAUGUGACCCUCGUCCUAAGGAUGAGGAAAUAGAAGGCACAUGAGGAUCACCCAUGUGAUGA [Eratusar]
The “apparent KD of MS2 coat protein” value of the first is 3.3-fold lower: 19.9 nM for the first, 65.4 nM for the second.

Going from “AAGAAACAUGAGGAUCACCCAUGUCAGGAUAUGUAAAAGAAAAGAAAAGAAAGAAGAAACAGAAGGGACAAAGG [Neferkaure]” to “AAGAAGAGAGGAUAUACAUGAGGAUCACCCAUGUAAAAGAAAGAAGGGAAAGAGAAAAGUAGAAGGCUCAAGAA [Usermaatre-setpenamun Rudamun]”, the “apparent KD of MS2 coat protein” value falls from 83.9 nM to 25.6 nM (3.3-fold).

Going from “AAAAAUGCAGGAUAUACGUACAUGUCAAAAGACGUGAAGGGACAUGAGGAUCACCCAUGUAGAAGGGUAAAGAA [JL Neck Breaker 15]” to “AGAAAACAUGAGGAUCACCCAUGUCAGGAUAUGUAAAAGAAAAGAAAAGAAAGAAGAAGCAGAAGGGACAAGAA [Sekhemkhet]”, the “apparent KD of MS2 coat protein” value falls from 237 nM to 28.8 nM (8.2-fold).

First: AAAAAGUCAGGAUAUGUCAAAGGUCACGAAAGUGACAAAGGACAGAAGGGACAUGAGGAUCACCCAUGUGGAAA [Fiskers Exclusion 4D1 65% - Late G segment 1]
Second: AAGAAACAUGAGGAUCACCCAUGUAAGGAUAUGAAAAAGAAAAGAAAAGAAAGAAGAAUCAGAAGGUACAAAGG [Nakhtnebtepnefer Intef III]
The “apparent KD of MS2 coat protein” value of the first is 3.4-fold higher: 82 nM for the first, 24.1 nM for the second.

Compared with “AAAAGACAUGAGGAUCACCCAUGUUAGGAUAUGGAAAAACAAAAAAAAAAAAAAAAAACCAGAAGGAGCGAGGG [another 1 four]”, “AAAAAACAUGAGGAUCACCCAUGUAAGGAUAUGCUAAAAAACACGGAAAAACGUGAUAGCAGAAGGUACAAAAA [66%, Wbt, 31]” is 8.4-fold lower in “apparent KD of MS2 coat protein” value: 190 nM for the first, 22.6 nM for the second.

Going from “AAGACUACAGGAUAUACAUGAGGAUCACCCAUGUAACUGACAAGUAGAGUACGGAGAAGUAGAAGGGUAGUCAA [Ruby 34]” to “AACGAGUCAGGAUAUACAAAAAGUAAAUAAGUAAAACCAAAGUAGAAGGGACAUGAGGAUCACCCAUGUAAAUA [JR_Exc004_Sub019]”, the “apparent KD of MS2 coat protein” value rises from 14.9 nM to 42.8 nM (2.9-fold).

“AGUUGGCGAGGAUAUACAUGAGGAUCACCCAUGUGAGAGAAAAAAAGAAGAAAAAAAAGUAGAAGGCGCUGACA [Mat - Exclusion 3 - Lego mod - D43]” and “AAAUGCUGAGGAUAUACAUGAGGAUCACCCAUGUAAAAUAAAUAAUAGGUGUAAACGUGUAGAAGGCAGCAUAA [Exclusion 3.14a (FMN+ favored )]” are within 1.5-fold of each other in “apparent KD of MS2 coat protein” value: 44.2 nM for the first, 62.6 nM for the second.

Compared with “AAGAAGAUAGGAUAUACAAAAUAAAAGAAAAGAAAGAAAGAACAUGAGGAUCACCCAUGUAGAAGGGUCAAGAA [Kheperkare Senusret I]”, “AAGAAGCUAGGAUAUACAUGAGGAUCACCCAUGUAAAAGAAAGAAGGGAAAGAGAAAAGUAGAAGGAGCAAGAA [Tefnakht]” is 2.1-fold lower in “apparent KD of MS2 coat protein” value: 54.6 nM for the first, 26.6 nM for the second.

First: AACAGUACAGGAUAUACAUGAGGAUCACCCAUGUGAAAAUUAAGUGGCGAACCACAAAGUAGAAGGGUACUGAA [Mat - Exclusion 3 - Eli mod - D56]
Second: AACAUGUUAGGAUAUUGAAGAAAAGAAAAGAAAGAAAAGAACAAGAAGGAACAUGAGGAUCACCCAUGUAAGAA [EteRNA is fun!]
The “apparent KD of MS2 coat protein” value of the first is 1.5-fold higher: 38.7 nM for the first, 25 nM for the second.

Going from “AAGAAGGCAGGAUAUACAUGAGGAUCACCCAUGUAAAAGAAAGAAAAGGGAAAGAAAAGUAGAAGGGCCAAGAA [Kamose]” to “GAUGAGUGAGGAUAUGUAAAAAAAAGAGAAGAGAAGAGAGAACAGAAGGCACAUGAGGAUCACCCAUGUAGGGA [Default title]”, the “apparent KD of MS2 coat protein” value rises from 35.4 nM to 226 nM (6.4-fold).

First: AACAUGUUAGGAUAUCUAAGAAAAGAAAAGAAAGAAAAGAAAGAGAAGGAACAUGAGGAUCACCCAUGUAAGAA [EteRNA is fun!]
Second: AUAAACUGAGGAUAUACAUGAGGAUCACCCAUGUAAAAAAAGAAAUGAUCCUCAGGAAGUAGAAGGCAGAAUAA [JR_Exc003_Sub017]
The “apparent KD of MS2 coat protein” value of the first is 2.3-fold higher: 30.1 nM for the first, 13.2 nM for the second.

“CAGGUACGAGGAUAUACAUAGAUACAGACACAUGUUCAAGUACAUGAGGAUCACCCAUGUAGAAGGCGUAUAUG [Mat - Same state - Mayanna Mod - D108]” and “GGUUGUCGAGGAUAUACAUGAGGAUCACCCAUGUGAGAGAAAAAAGUGAGAAAGAAAAGUAGAAGGCGAUGACG [salish99-ex3-58]” are within 1.5-fold of each other in “apparent KD of MS2 coat protein” value: 47.6 nM for the first, 38.2 nM for the second.

Going from “GUGUACAGAGGAUAUACUAAAGCUAGGAAACUAGCAAGAUCACAUGAGGAUCACCCAUGUAGAAGGCUGUACAC [Ex2: 740]” to “AAAAAACAUGAGGAUCACCCAUGUCAGGAUAUCCGGUUAAAAAAAAAAAAAAGGCGUUGGAGAAGGGACAUUCC [Chica Displaced 9 - Jieux - Exclusion 1]”, the “apparent KD of MS2 coat protein” value falls from 58.1 nM to 25.7 nM (2.3-fold).

“AAAUAGCAAGGAUAUACAUGAGGAUCACCCAUGUGAAAAUGAUACGUAAUAGAAUAGAGUAGAAGGUGCAAAUA [Ex 3 Tesla 7]” and “GAAAAACAUGAGGAUCACCCAUGUAAGGAUAUGCUAAAAAACACGGAAAAACGUGAUAGCAGAAGGUACAAAAG [Mat - Exclusion 1 - Eli mod - D88]” are within 1.5-fold of each other in “apparent KD of MS2 coat protein” value: 25.1 nM for the first, 19.8 nM for the second.

First: AGCUAGUCAGGAUAUACGAACAUGACAAAAGACGUGAAGGGACAUGAGGAUCACCCAUGUAGAAGGGACUAGCA [74%, Web mod - With 1 less U's]
Second: AAAAAGUUAGGAUAUACAUGAGGAUCACCCAUGUACAUAUAUGGAGAAUAUAGUAGUAGUAGAAGGGACAAAAA [EX2 Malc#14]
The “apparent KD of MS2 coat protein” value of the first is 1.8-fold higher: 38.7 nM for the first, 21 nM for the second.

First: AAAAAGUCAGGAUAUAGCAAAGGUCACGAAAGUGACAAAGGCUAGAAGGGACAUGAGGAUCACCCAUGUAAAAA [Fiskers Exclusion 4 D2]
Second: AAAAACGGAGGAUAUGCAAAAAAAAAAAAAAAAAAAAAAAAACAUGAGGAUCACCCAUGUAGAAGGCCGAAAAA [Diamond]
The “apparent KD of MS2 coat protein” value of the first is 2.1-fold higher: 53 nM for the first, 25.6 nM for the second.

Compared with “AGAAUUGUAGGAUAUACAUGAGGAUCACCCAUGUGGGAGGUGGAGCAAACAAGACGAGGUAGAAGGACAACGAC [JR_Exc003-Sub904]”, “AAAAAGUAAGGAUAUGCGAAUAAAUAAGAAGAAGAAAGAAAGCAGAAGGUACAUGAGGAUCACCCAUGUAAAAA [Ex 4 Tesla 1]” is 3.7-fold lower in “apparent KD of MS2 coat protein” value: 134 nM for the first, 36.3 nM for the second.

Compared with “CAGUACUGAGGAUAUACAUGAGGAUCACCCAUGUGAUCAAGCUACGAAAGUAGCAAAAGUAGAAGGCAGUACUG [Ex3: 810]”, “ACAUGACAUGAGGAUCACCCAUGUGAGGAUAUGCGAAAAAAAUUUUUAAAAAAAAUUGGCAGAAGGCACAAAAU [George Ritzer.]” is 3.1-fold lower in “apparent KD of MS2 coat protein” value: 277 nM for the first, 88.9 nM for the second.

Going from “CCUGAACAUGAGGAUCACCCAUGUGAGGAUAUGAUGCGAAUAAAGAAAGAAGAAAGCAUCAGAAGGCACAUAGG [Mod of Disincluded 3 v.4]” to “AAACGUUGAGGAUAUACAGAAGGGUAUAAAUCAUAAAAAACACAUGAGGAUCACCCAUGUAGAAGGCAACGAAA”, the “apparent KD of MS2 coat protein” value rises from 28 nM to 97.9 nM (3.5-fold).

“AAAAUACAUGAGGAUCACCCAUGUGAGGAUAUGCUAUGGAAAAUAAAAAUAAAACAUAGCAGAAGGCACAAAAA [Denovo 13]” and “AAAAAGUCAGGAUAUGCAGAUAAAAAAACGAAAAAAAAUCUGCAGAAGGGACAUGAGGAUCACCCAUGUAAAAA [Ex 4 May 5]” are within 1.5-fold of each other in “apparent KD of MS2 coat protein” value: 37 nM for the first, 48.5 nM for the second.

First: AGCAAGUGAGGAUAUGCGAAGUCAGGACACACACUGACGAAGCAGAAGGCACAUGAGGAUCACCCAUGUAAGCA [JR_Exclusion-4 65% 1]
Second: AAAAAGGCAGGAUAUGCAUACCCACGAAAAAAAACGCUGGGACAUGAGGAUCACCCAUGUAGAAGGGCCAAAAA [Dora Explored 11 - Jieux - Exclusion 2]
The “apparent KD of MS2 coat protein” value of the first is 1.6-fold lower: 33.1 nM for the first, 54 nM for the second.

Going from “GGAAAACAUGAGGAUCACCCAUGUAAGGAUAUGCUAGGGAAGGAAAAAAACCCACCAGGCAGAAGGUACUAAAG [Janelle Amethyst 18 Mod 5 - Jieux - Exclusion 1]” to “CGGGAGUCAGGAUAUACGAACAUGUCGCCAGAUGUCAAGGUACAUGAGGAUCACCCAUGUAGAAGGGAGGAGAG [salish99-Ex2-34]”, the “apparent KD of MS2 coat protein” value rises from 22.9 nM to 80.8 nM (3.5-fold).
